Laboratory results taken from patent US20260250363A1.

What was measured:
Conditions in all cases: remark: other sources report otherwise
[1] = biological target: T1, SARS-CoV-2 AY.1 Spike Protein (R&D, Cat. #10922-CV) (SARS-CoV-2), P0DTC2; experiment: direct ELISA on coated spike
[2] = biological target: T2, SARS-CoV-2 C.37 Spike His Protein (R&D, Cat. #10887-CV) (SARS-CoV-2), P0DTC2; experiment: direct ELISA on coated spike
[3] = biological target: T3, SARS-CoV-2 Spike Protein, wild type (R&D, Cat. #10549-CV) (SARS-CoV-2), P0DTC2; experiment: direct ELISA on coated spike
[4] = biological target: T1, SARS-CoV-2 AY.1 Spike Protein (R&D, …); experiment: BLI (ForteBio), mAb on AHC sensor, spike in solution
[5] = biological target: T2, SARS-CoV-2 C.37 Spike His Protein (R&D, …); experiment: as above
[6] = biological target: T3, SARS-CoV-2 Spike Protein, wild type …; experiment: as above
[7] = biological target: T1, SARS-CoV-2 AY.1 Spike Protein (R&D, …); experiment: competition ELISA: blocks biotin-ACE2 binding to coated spike
[8] = biological target: T2, SARS-CoV-2 C.37 Spike His Protein (R&D, …); experiment: as above
[9] = biological target: T3, SARS-CoV-2 Spike Protein, wild type …; experiment: as above
[10] = biological target: T3, SARS-CoV-2 Spike Protein, wild type …; experiment: as above; remark: listed apart in the source
[11] = biological target: T2, SARS-CoV-2 C.37 Spike His Protein (R&D, …); experiment: as above; remark: listed apart in the source
[12] = biological target: T1, SARS-CoV-2 AY.1 Spike Protein (R&D, …); experiment: as above; remark: listed apart in the source

B1: Casirivimab (antibody)
chain 1: QVQLVESGGGLVKPGGSLRLSCAASGFTFSDYYMSWIRQAPGKGLEWVSYITYSGSTIYYADSVKGRFTISRDNAKSSLYLQMNSLRAEDTAVYYCARDRGTTMVPFDYWGQGTLVTVSS
chain 2: DIQMTQSPSSLSASVGDRVTITCQASQDITNYLNWYQQKPGKAPKLLIYAASNLETGVPSRFSGSGSGTDFTFTISGLQPEDIATYYCQQYDNLPLTFGGGTKVEIK
[1]
  EC50: 0.041 nM
[2]
  EC50: 0.0507 nM
[3]
  EC50: 0.0557 nM
[4]
  Kd: 1.08 nM
[5]
  Kd: 0.511 nM
[6]
  Kd: 2.85 nM
[7]
  IC50: 0.646 nM
[8]
  IC50: 1.9 nM
[9]
  IC50: 3.73 nM
[10]
  IC50: 2.94 nM
[11]
  IC50: 1.39 nM
[12]
  IC50: 0.341 nM
